Test [1] has as its target T1, GPVI-Fc (fusion protein of the extracellular domain of human GPVI and the Fc fragment of human IgG1) (human, UniProt Q9HCN6 21-267).
T1 construct: extracellular domain; also called human soluble GPVI-Fc; GPVI-hFc; not shown: human IgG1 Fc domain from plasmid pM1304 (printed as '506 amino acids'), joined in frame through a BamHI site
T1 sequence (looked up): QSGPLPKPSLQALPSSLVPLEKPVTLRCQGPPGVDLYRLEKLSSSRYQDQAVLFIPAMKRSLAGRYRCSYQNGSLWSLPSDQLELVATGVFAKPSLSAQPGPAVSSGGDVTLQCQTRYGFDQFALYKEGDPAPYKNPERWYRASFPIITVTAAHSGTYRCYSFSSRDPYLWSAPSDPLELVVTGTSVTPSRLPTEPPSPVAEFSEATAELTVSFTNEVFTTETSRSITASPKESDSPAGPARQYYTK
Put plainly: ELISA on immobilized GPVI-Fc (0.25 µg/well), 20 ng purified antibody, peroxidase-labeled anti-human kappa or lambda antibody, absorbance at 450 nm. The protocol: GPVI binding activity of the purified antibody that was obtained in EXAMPLE 2 was assayed by the ELISA method that was described in EXAMPLE 2. As substitute for the culture supernatant of hybridoma in EXAMPLE 2, 20 ng of the purified anti-GPVI monoclonal human antibody prepared in EXAMPLE 2 was added, and as a control, purified human IgM (Cappel) was used.
Thus it was confirmed that the prepared antibody specifically recognizes GPVI.
In general terms: ELISA stands for enzyme-linked immunosorbent assay.

Test [2] addresses T1, GPVI-Fc (fusion protein of the …). Nature of the test: SPR (BIACORE3000), GPVI-Fc immobilized on CM5 chip.

B1: #2-37 (antibody, V domains shown)
VH: EVQLVESGGGLVKPGGSLRLSCAASGFTFSDYYMSWIRQAPGKGLEWVSYITSSSSYTNYADSVKGRFTISRDNAKNSLYLQMNSLRAEDTAVYYCARDRAVRGVIIIRPPDYWGQGTLVTVSS
VL: QSALTQPASVSGSPGQSITISCTGTSSDVGGYNYVSWYQQHPGKAPKLMIYDVSNRPSGVSNRFSGSKSGNTASLTISGLQAEDEADYYCSSYTSSSTLVFGGGTKLTVL
notes: Human monoclonal antibody from a hybridoma; also called clone #2-37; #2-37 antibody
Consider B1, for which the binding result in test [1] is “binds”.

B2: #2-4 antibody (anti-GPVI monoclonal human antibody produced by hybridoma clone #2-4) (antibody, V domains shown)
VH: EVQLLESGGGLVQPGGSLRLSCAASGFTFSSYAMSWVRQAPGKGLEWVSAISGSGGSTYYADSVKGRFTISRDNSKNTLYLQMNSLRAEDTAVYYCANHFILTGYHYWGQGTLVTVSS
VL: QSVLTQPPSVSAAPGQKVTISCSGSSSNIGNNYVSWYQQLPGTAPKLLIYDNNKRPSGIPDRFSGSKSGTSATLGITGLQTGDEADYYCGTWDSSLSAGVFGGGTKLTVL
In turn, B2 displayed a Kd in test [2] of 41.3 nM.

The Kd is the free concentration of one partner at which half of the binding sites on the other are occupied at equilibrium, for simple one-to-one binding.

The values are drawn from US20070025992A1 (MOCHIDA PHARMACEUTICAL, published 2007).
